The chains are these.
B1: D5 IgG1 antibody (Fab D5 reformatted) (antibody, V domains shown)
VH: EVQLLESGGGLVQPGGSLRLSCAASGFTFSRYDMHWVRQAPGKGLEWVSSISSSGGYTAYADSVKGRFTISRDNSKNTLYLQMNSLRAEDTAVYYCARGARGTSQGYWGQGTLVTVSS
VL: DIQMTQSPGTLSLSPGERGTLSCRASQFVSYSYLAWYQQKPGQAPRLLIYGASSRAKGIPDRFSGSGSGTDFTLTITRLEPEDFAVYYCQQYVPSVPWTFGQGTKVEVKR
B2: D2 IgG1 antibody (Fab D2 reformatted) (antibody, V domains shown)
VH: EVQLLESGGGLVQPGGSLRLSCAASGFTFSRYRMYWVRQAPGKGLEWVSSISPSGGDTRYADSVKGRFTISRDNSKNTLYLQMNSLRAEDTAVYYCARGGPRGNKYYFDYWGQGTLVTVSS
VL: DIQMTQSPSSLSASVGDRVTITCRASQTIDNYLNWYQQKPGKAPKLVVYAASTLQTRVPSRFSGSGSGTDFTLTIDSLKPEDFATYFCQQGFSNPWTFGQGTTVAMIR
B3: C9 IgG1 antibody (Fab C9 reformatted) (antibody, V domains shown)
VH: B2 VH with R33P, Y35F, S50Y, P53S, D57F, R59G
VL: QSVLTQPASVSGSPGQSITISCTGTSSDVGHYNYVSWYQQHPGKAPKVMIYDVSSRPSGVSDRFSGSKSGNTASLAISGLQAEDEADYYCSSYTSGDTLYVFGTGTKVTVLG
B4: A2 IgG1 antibody (Fab A2 reformatted) (antibody, V domains shown)
VH: B2 VH
VL: DIQMTQSPSFLSAFVGDRVTITCRASQDIRSDLAWYQQTPGKAPKLLIYAASTLKDGAPSRFSGSGSGTEFTLTISSLHPEDLATYYCQHLNGHPAFGPGTKVNIQR
B5: B5 IgG1 antibody (Fab B5 reformatted) (antibody, V domains shown)
VH: B2 VH
VL: SYELTQPPSVSVSLGQAANISCSGDRLGDKYTSWYQQQSGQSPVLVIYQDKKRPSGIPERFSGSSSGNTATLTISGAQAIDEAAYYCQAWATNVVFGAGTKLTVLG
B6: F8 IgG1 antibody (Fab F8 reformatted) (antibody, V domains shown)
VH: B2 VH with R33H, Y35W, S50G, P53S, G55R, D57I, R59K
VL: DIQMTQSPGTLSLSPGERVTLSCRASQSVTSSDLAWYQQKPGQAPRLLISGASSRATGIPDRFSGSGSGTDFTLTISRLEPEDFAVYYCQQYGNSPGTFGQGTKVEIKR
B7: H10 IgG1 antibody (Fab H10 reformatted) (antibody, V domains shown)
VH: B2 VH
VL: not shown

Where a chain is given by its changes, count along the chain named.

For one test, the target named is T1, MTSP-1 (UniProt Q9Y5Y6 615-855, limits assumed).
T1 sequence (looked up): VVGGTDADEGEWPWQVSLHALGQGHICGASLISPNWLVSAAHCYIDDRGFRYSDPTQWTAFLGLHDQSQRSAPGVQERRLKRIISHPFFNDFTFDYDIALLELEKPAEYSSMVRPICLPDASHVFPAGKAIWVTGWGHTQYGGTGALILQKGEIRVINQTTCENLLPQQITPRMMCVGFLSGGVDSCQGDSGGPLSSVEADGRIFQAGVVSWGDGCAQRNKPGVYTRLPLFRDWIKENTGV
The test is described as follows: cell-based or functional assay.
Take B1: the “activity against protease in selectivity screen (enzyme assay)” value is less than 5%.

As for B2, the “activity against protease in selectivity screen (enzyme assay)” value was less than 5%.

As to B3, the “activity against protease in selectivity screen (enzyme assay)” value was less than 5%.

On to B4, for which the “activity against protease in selectivity screen (enzyme assay)” value is less than 5%.

Take B5: the “activity against protease in selectivity screen (enzyme assay)” value was less than 5%.

The next test concerns the target MTSP-6. Put plainly: cell-based or functional assay.
As for B1, the “activity against protease in selectivity screen (enzyme assay)” value was less than 5%.

As to B2, the “activity against protease in selectivity screen (enzyme assay)” value was less than 5%.

In the case of B3, the “activity against protease in selectivity screen (enzyme assay)” value is less than 5%.

On to B4, for which the “activity against protease in selectivity screen (enzyme assay)” value was less than 5%.

In the case of B6, the “activity against protease in selectivity screen (enzyme assay)” value was less than 5%.

Consider B5, for which the “activity against protease in selectivity screen (enzyme assay)” value is less than 5%.

For B7, the “activity against protease in selectivity screen (enzyme assay)” value was less than 5%.

For a further test, the target named is MTSP-7. Put plainly: cell-based or functional assay.
For B1, the “activity against protease in selectivity screen (enzyme assay)” value was less than 5%.

As to B2, the “activity against protease in selectivity screen (enzyme assay)” value is less than 5%.

For B3, the “activity against protease in selectivity screen (enzyme assay)” value was less than 5%.

As to B4, the “activity against protease in selectivity screen (enzyme assay)” value was less than 5%.

Regarding B6, the “activity against protease in selectivity screen (enzyme assay)” value was less than 5%.

Take B5: the “activity against protease in selectivity screen (enzyme assay)” value is less than 5%.

In the case of B7, the “activity against protease in selectivity screen (enzyme assay)” value was less than 5%.

A further test concerns the target MTSP-10. Put plainly: cell-based or functional assay.
In the case of B1, the “activity against protease in selectivity screen (enzyme assay)” value is less than 5%.

With B2, the “activity against protease in selectivity screen (enzyme assay)” value is less than 5%.

For B3, the “activity against protease in selectivity screen (enzyme assay)” value was less than 5%.

B4: the “activity against protease in selectivity screen (enzyme assay)” value was less than 5%.

As for B6, the “activity against protease in selectivity screen (enzyme assay)” value is less than 5%.

For B5, the “activity against protease in selectivity screen (enzyme assay)” value is less than 5%.

For the molecule B7, the “activity against protease in selectivity screen (enzyme assay)” value was less than 5%.

Another test addresses T2, Trypsinogen-IV (UniProt P35030 81-304).
T2 sequence (looked up): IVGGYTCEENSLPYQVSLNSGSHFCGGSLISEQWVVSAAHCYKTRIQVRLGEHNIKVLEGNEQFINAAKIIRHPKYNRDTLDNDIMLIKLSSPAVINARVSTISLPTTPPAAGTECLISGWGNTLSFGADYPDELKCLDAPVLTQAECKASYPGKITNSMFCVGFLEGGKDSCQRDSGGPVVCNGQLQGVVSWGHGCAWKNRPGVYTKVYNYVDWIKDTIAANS
The test is described as follows: cell-based or functional assay.
In the case of B1, the “activity against protease in selectivity screen (enzyme assay)” value was less than 5%.

B2: the “activity against protease in selectivity screen (enzyme assay)” value is less than 5%.

B3: the “activity against protease in selectivity screen (enzyme assay)” value was less than 5%.

Take B4: the “activity against protease in selectivity screen (enzyme assay)” value was less than 5%.

With B6, the “activity against protease in selectivity screen (enzyme assay)” value is less than 5%.

In the case of B5, the “activity against protease in selectivity screen (enzyme assay)” value was less than 5%.

In the case of B7, the “activity against protease in selectivity screen (enzyme assay)” value is less than 5%.

The next test concerns the target Endotheliase-1 (ET1). The test is described as follows: cell-based or functional assay.
As to B1, the “activity against protease in selectivity screen (enzyme assay)” value was less than 5%.

Consider B2, for which the “activity against protease in selectivity screen (enzyme assay)” value is less than 5%.

In the case of B3, the “activity against protease in selectivity screen (enzyme assay)” value was less than 5%.

Consider B4, for which the “activity against protease in selectivity screen (enzyme assay)” value was less than 5%.

In the case of B6, the “activity against protease in selectivity screen (enzyme assay)” value was less than 5%.

Regarding B5, the “activity against protease in selectivity screen (enzyme assay)” value was less than 5%.

B7: the “activity against protease in selectivity screen (enzyme assay)” value was less than 5%.

For the origin of these results see patent publication US20080019962A1 (DYAX CORP A MASSACHUSETTS, published 2008).
